Drawing on patent US20250250357A1 (NANJING ZAIMING PHARMACEUTICAL, published 2025), this text covers OD450 for 5 molecules.

B1: S009-F2.16.10 (antibody, human IgG1, kappa, V domains shown)
VH: QVQLQQPGAELIKPGASVKLSCKASGYTFTSYWMHWVKQRPGQGLEWIGIIHPNIGSTNYNERFKSKATLTVDKSSSTAYMQLSSLTSEDSAVYYCARRSSNYGDWYFDVWGTGTTVTVSS
VL: DIVMTQSHRFMSTSVGDRVSITCKASQDVGTSVAWYQQKPGQSPKLLIYWASTQHTGVPDRFTGSGSGTDFTLTINNVQSEDLLDYFCQQYSSYPLTFGAGTKLELKR
notes: Human-murine chimeric antibody: murine VH/VL on human IgG1 heavy and kappa light constant regions
B2: S009-F2.23.12 (antibody, human IgG1, kappa, V domains shown)
VH: QVQLQQPGTELVKPGASVKLSCKASGYTFTNYWMHWVKQRPGQGLEWIGNINPSNGGPYYNERFRSKATLTVDKSSSTAYMQLSSLTSEDSAVYYCARPYYGSSYGYFDYWGQGTTLTVSS
VL: DIQMTQSPSSLSASLGGKVTITCKASQDINKYIAWYQHKPGKGPRLLIHYTSELQPGIPSRFSGNGSGRDYSFSISNLEPEDIATYYCLQYANPLRTFGGGTKLEIKR
notes: as for B1
B3: S009-F2.21.4 (antibody, human IgG1, kappa, V domains shown)
VH: EVQLQQSGPELVKPGASVKIPCKASGYTFTDYNMDWVKQSHGKSLEWIGDINPNNGGSIYNQRFKGKATLTVDKSSSTAYMELRSLTSEDSAVYYCARRAYYSTGYFDVWGTGTTVTVSS
VL: QIVLTQSPALMSASPGEKVTITCSASSSISYMHWFQQKPGTSPKLWIYSTSTLASGVPARFSGSGSGTSYSLTISRMEAEDTATYYCQQRSSYPPTFGGGTKLEIKR
notes: as for B1
B4: S009-F2.13.3 (antibody, human IgG1, kappa, V domains shown)
VH: QVQLQQSGAELMKPGASVKLSCKATGYTFTGYWIEWVKQRPGHGLEWIGEILPGSGSTNYNEKFKGKATFTADTSSNTAYMQLSSLTTEDSAIYYCARAGAWFAYWGQGTLVTVSA
VL: QIVLTQSPAIMSASLGERVTMTCTASSSVSSSYLHWYQQKPGSSPKLWTYSTSNLASGVPARFSGSGSGTSYSLTISSMEAEDAATYYCHQYHRSPWTFGGGTKLEIKR
notes: as for B1
B5: S009-F2.17.3 (antibody, human IgG1, kappa, V domains shown)
VH: QVQLQQPGTELVTPGASVKLSCKASGYSFTSYWMHWVKQRPGQGLEWIGNINPSNGDTFYNEKFKNKATLTVDKSSSTAYMQLSSLTSEDSAVYYCARGWLRDYWGQGTTLTVSS
VL: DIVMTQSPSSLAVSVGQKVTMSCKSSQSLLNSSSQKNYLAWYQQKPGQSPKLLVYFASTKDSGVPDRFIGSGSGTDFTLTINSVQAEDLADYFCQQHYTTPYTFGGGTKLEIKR
notes: as for B1

The target of one experiment is T1, human MSLN-R2-his protein (human, UniProt Q13421 391-486).
T1 construct: Self-made in HEK293E cells; also called human MSLN-R2 protein; hMSLN-R2-his; not shown: His tag
T1 sequence (Q13421 other isoform, or with tags, fused parts or gaps): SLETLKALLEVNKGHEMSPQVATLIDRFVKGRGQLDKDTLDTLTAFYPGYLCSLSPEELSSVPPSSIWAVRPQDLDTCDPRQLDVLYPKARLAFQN
Briefly: ELISA on coated antigen, antibody 0.1 nM.
B1 displayed an OD450 of 0.05 OD450.
The same measure, in the same setting: the figure for B2 is 0.05 OD450; for B3 it is 0.05 OD450; for B4 it is 0.05 OD450.
Same read-out and setting: the figure for B5 is 0.05 OD450.

Another experiment deals with T2, human MSLN-R3-his protein (human, UniProt Q13421 487-598).
T2 construct: Self-made in HEK293E cells; also called human MSLN-R3 protein; hMSLN-R3-his; not shown: His tag
T2 sequence (Q13421 495-606): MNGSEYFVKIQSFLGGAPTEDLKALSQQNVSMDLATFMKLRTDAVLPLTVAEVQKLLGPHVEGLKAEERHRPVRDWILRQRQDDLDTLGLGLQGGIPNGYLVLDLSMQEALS
Briefly: ELISA on coated antigen, antibody 0.1 nM.
In the case of B1, the OD450 was found to be 0.05 OD450.
On the same count and under the same terms, next, B2: 0.09 OD450; B3: 0.05 OD450.
On the same count and under the same terms, the figure for B4 is 0.05 OD450; for B5 it is 0.07 OD450.

The target in another experiment is T1, human MSLN-R2-his protein. Briefly: ELISA on coated antigen, antibody 1 nM.
Method: (§1) The plate was sealed with a plastic film and incubated at 4° C. overnight. The next day, the plate was washed twice with PBST, and a blocking buffer [PBS+2% (w/w) BSA] was added for blocking at room temperature for 2 h. The blocking buffer was discarded, and a chimeric antibody or negative control antibody serially diluted from 100 nM was added at 50 μL/well. After incubation at 37° C. for 2 h, the plate was washed 3 times with PBST. […] After incubation at 37° C. for 2 h, the plate was washed 5 times with PBST. A TMB substrate was added at 50 μL/well for incubation at room temperature for 5-10 min, and then a stop solution (1.0 N HCl) was added at 50 μL/well.
On to B1, for which the OD450 came out at 0.05 OD450.
Regarding B2, the OD450 is 0.05 OD450.
On the same count and under the same terms, next, B3: 0.05 OD450; B4: 0.05 OD450.
The molecule B5 gave an OD450 of 0.05 OD450.

The target of another experiment is T1, human MSLN-R2-his protein. Briefly: ELISA on coated antigen, antibody 100 nM.
Method: as §1
The molecule B1 came in with an OD450 of 0.05 OD450.
Take B2: the OD450 turned out to be 0.06 OD450.
On the same count and under the same terms, the figure for B3 is 0.06 OD450; for B4 it is 0.07 OD450; for B5 it is 0.06 OD450.

A further experiment addresses T3, human MSLN-R3-3 polypeptide (human).
T3 construct: also called human MSLN-R3-3 protein; hMSLN-R3-3
Briefly: ELISA on coated antigen, antibody 10 nM.
Method: as §1
Molecule B1 came in with an OD450 of 0.05 OD450.
B2: the OD450 came out at 0.05 OD450.
On the same count and under the same terms, next, B3: 0.05 OD450.
Still for that read-out and setting: the figure for B4 is 0.07 OD450; for B5 it is 0.05 OD450.

The next experiment has as its target T2, human MSLN-R3-his protein. Briefly: ELISA on coated antigen, antibody 1 nM.
Method: as §1
Regarding B1, the OD450 was determined as 0.05 OD450.
On to B2, for which the OD450 stood at 0.3 OD450.
The same measure, in the same setting: the figure for B3 is 0.05 OD450.
The same measure, in the same setting: next, B4: 0.05 OD450.
Same read-out and setting: the figure for B5 is 0.29 OD450.

A further experiment deals with T3, human MSLN-R3-3 polypeptide. Briefly: ELISA on coated antigen, no antibody (column none).
Method: as §1
On to B1, for which the OD450 amounted to 0.05 OD450.
Still for that read-out and setting: the figure for B2 is 0.05 OD450.
The same measure, in the same setting: the figure for B3 is 0.05 OD450; for B4 it is 0.05 OD450; for B5 it is 0.05 OD450.

The next experiment concerns the target T2, human MSLN-R3-his protein. Briefly: ELISA on coated antigen, antibody 0.001 nM.
Method: as §1
In the case of B1, the OD450 is 0.05 OD450.
Same read-out and setting: next, B2: 0.05 OD450; B3: 0.05 OD450; B4: 0.06 OD450.
Same read-out and setting: the figure for B5 is 0.05 OD450.

A further experiment deals with T1, human MSLN-R2-his protein. Briefly: ELISA on coated antigen, antibody 0.0001 nM.
Method: as §1
Molecule B1 had an OD450 of 0.05 OD450.
B2 returned an OD450 of 0.05 OD450.
Still for that read-out and setting: the figure for B3 is 0.05 OD450; for B4 it is 0.06 OD450.
Still for that read-out and setting: the figure for B5 is 0.05 OD450.

For the next experiment, the target named is T2, human MSLN-R3-his protein. Briefly: ELISA on coated antigen, no antibody (column none).
Method: as §1
Consider B1, for which the OD450 worked out at 0.06 OD450.
The same measure, in the same setting: next, B2: 0.06 OD450.
The molecule B3 yielded an OD450 of 0.06 OD450.
On the same count and under the same terms, the figure for B4 is 0.06 OD450.
Take B5: the OD450 came out at 0.06 OD450.

A further experiment concerns the target T3, human MSLN-R3-3 polypeptide. Briefly: ELISA on coated antigen, antibody 0.1 nM.
Method: as §1
Regarding B1, the OD450 was 0.05 OD450.
Consider B2, for which the OD450 came to 0.05 OD450.
On the same count and under the same terms, next, B3: 0.05 OD450; B4: 0.05 OD450; B5: 0.05 OD450.

The target is the same in another experiment. Briefly: ELISA on coated antigen, antibody 0.01 nM.
Method: as §1
Take B1: the OD450 stood at 0.05 OD450.
Still for that read-out and setting: next, B2: 0.05 OD450; B3: 0.05 OD450.
Consider B4, for which the OD450 was found to be 0.05 OD450.
The same measure, in the same setting: next, B5: 0.05 OD450.

For another experiment, the target named is T1, human MSLN-R2-his protein. Briefly: ELISA on coated antigen, antibody 0.01 nM.
Method: as §1
In the case of B1, the OD450 was 0.05 OD450.
Regarding B2, the OD450 amounted to 0.05 OD450.
On the same count and under the same terms, the figure for B3 is 0.05 OD450; for B4 it is 0.05 OD450; for B5 it is 0.05 OD450.

The target of a further experiment is T2, human MSLN-R3-his protein. Briefly: ELISA on coated antigen, antibody 0.0001 nM.
Method: as §1
With B1, the OD450 is 0.05 OD450.
The same measure, in the same setting: next, B2: 0.05 OD450.
Same read-out and setting: next, B3: 0.05 OD450; B4: 0.05 OD450; B5: 0.05 OD450.

The target of a further experiment is T1, human MSLN-R2-his protein. Briefly: ELISA on coated antigen, no antibody (column none).
Method: as §1
For B1, the OD450 was found to be 0.06 OD450.
The same measure, in the same setting: the figure for B2 is 0.06 OD450.
On the same count and under the same terms, next, B3: 0.06 OD450.
The same measure, in the same setting: the figure for B4 is 0.06 OD450; for B5 it is 0.06 OD450.

Another experiment deals with T2, human MSLN-R3-his protein. Briefly: ELISA on coated antigen, antibody 100 nM.
Method: as §1
As to B1, the OD450 came out at 0.06 OD450.
Still for that read-out and setting: next, B2: 2.08 OD450; B3: 0.06 OD450; B4: 0.06 OD450.
Still for that read-out and setting: next, B5: 2.3 OD450.

The target of a further experiment is T3, human MSLN-R3-3 polypeptide. Briefly: ELISA on coated antigen, antibody 100 nM.
Method: as §1
The molecule B1 showed an OD450 of 0.05 OD450.
The same measure, in the same setting: next, B2: 0.06 OD450; B3: 0.05 OD450.
The same measure, in the same setting: next, B4: 0.06 OD450; B5: 0.05 OD450.

The target is the same in a further experiment. Briefly: ELISA on coated antigen, antibody 0.001 nM.
Method: as §1
On to B1, for which the OD450 worked out at 0.05 OD450.
For B2, the OD450 was 0.05 OD450.
On the same count and under the same terms, the figure for B3 is 0.05 OD450.
Still for that read-out and setting: the figure for B4 is 0.05 OD450; for B5 it is 0.05 OD450.

Another experiment concerns the target T2, human MSLN-R3-his protein. Briefly: ELISA on coated antigen, antibody 10 nM.
Method: as §1
The molecule B1 registered an OD450 of 0.05 OD450.
Same read-out and setting: the figure for B2 is 1.4 OD450.
Same read-out and setting: next, B3: 0.05 OD450.
As to B4, the OD450 turned out to be 0.06 OD450.
Same read-out and setting: next, B5: 1.19 OD450.

The target of the next experiment is T1, human MSLN-R2-his protein. Briefly: ELISA on coated antigen, antibody 0.001 nM.
Method: as §1
Consider B1, for which the OD450 was found to be 0.05 OD450.
Consider B2, for which the OD450 is 0.05 OD450.
Still for that read-out and setting: next, B3: 0.05 OD450.
Same read-out and setting: next, B4: 0.05 OD450.
Take B5: the OD450 was 0.05 OD450.

The target in the next experiment is T2, human MSLN-R3-his protein. Briefly: ELISA on coated antigen, antibody 0.01 nM.
Method: as §1
As to B1, the OD450 was determined as 0.05 OD450.
The same measure, in the same setting: next, B2: 0.05 OD450; B3: 0.05 OD450; B4: 0.05 OD450.
Same read-out and setting: next, B5: 0.05 OD450.

Another experiment has as its target T1, human MSLN-R2-his protein. Briefly: ELISA on coated antigen, antibody 10 nM.
Method: as §1
The molecule B1 came in with an OD450 of 0.05 OD450.
Same read-out and setting: the figure for B2 is 0.05 OD450; for B3 it is 0.05 OD450; for B4 it is 0.06 OD450.
Same read-out and setting: next, B5: 0.05 OD450.

The target in another experiment is T3, human MSLN-R3-3 polypeptide. Briefly: ELISA on coated antigen, antibody 1 nM.
Method: as §1
The molecule B1 returned an OD450 of 0.05 OD450.
B2 displayed an OD450 of 0.05 OD450.
The molecule B3 came in with an OD450 of 0.05 OD450.
In turn, B4 displayed an OD450 of 0.05 OD450.
Same read-out and setting: the figure for B5 is 0.05 OD450.

A further experiment has the same target. Briefly: ELISA on coated antigen, antibody 0.0001 nM.
Method: as §1
In turn, B1 registered an OD450 of 0.05 OD450.
In turn, B2 showed an OD450 of 0.05 OD450.
On the same count and under the same terms, the figure for B3 is 0.05 OD450; for B4 it is 0.05 OD450.
On the same count and under the same terms, next, B5: 0.05 OD450.
